Test results reported in publication PMC7699624.

Target: Recombinant P-selectin protein (UniProt P16109)
Test: SPR; BIAcore T200; recombinant P-selectin immobilised by carbodiimide chemistry on a CM4 sensor chip (ligand); PSGL-1-targeted and non-targeted liposomes as analyte

Chain of UniProt P16109 (P16109 42-830): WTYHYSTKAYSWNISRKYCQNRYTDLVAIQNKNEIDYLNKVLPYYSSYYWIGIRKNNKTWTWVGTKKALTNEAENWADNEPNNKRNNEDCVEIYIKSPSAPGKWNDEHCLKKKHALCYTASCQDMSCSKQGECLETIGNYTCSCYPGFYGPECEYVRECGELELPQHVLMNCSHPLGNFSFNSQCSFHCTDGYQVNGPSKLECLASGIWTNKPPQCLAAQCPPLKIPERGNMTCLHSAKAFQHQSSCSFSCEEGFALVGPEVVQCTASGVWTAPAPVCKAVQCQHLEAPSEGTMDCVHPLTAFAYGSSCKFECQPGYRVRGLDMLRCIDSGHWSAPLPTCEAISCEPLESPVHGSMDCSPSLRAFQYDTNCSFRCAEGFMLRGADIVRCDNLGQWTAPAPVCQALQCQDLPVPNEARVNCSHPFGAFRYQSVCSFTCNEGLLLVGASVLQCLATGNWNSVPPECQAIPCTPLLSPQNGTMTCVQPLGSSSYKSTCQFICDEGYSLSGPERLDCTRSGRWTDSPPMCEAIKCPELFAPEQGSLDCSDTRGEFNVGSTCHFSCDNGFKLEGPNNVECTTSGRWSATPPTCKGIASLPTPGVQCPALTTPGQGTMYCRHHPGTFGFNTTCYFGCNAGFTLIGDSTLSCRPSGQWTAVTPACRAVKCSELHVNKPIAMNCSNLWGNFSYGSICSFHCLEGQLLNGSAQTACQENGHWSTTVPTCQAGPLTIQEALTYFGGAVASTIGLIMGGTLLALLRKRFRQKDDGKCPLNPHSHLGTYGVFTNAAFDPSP

## Recombinant P-selectin glycoprotein ligand-1 (PSGL-1) protein, conjugated to the surface of liposomes (from UniProt Q14242 42-412)
  fold increase in binding against non-targeted liposomes: 8 fold
